Laboratory results as given in PMC5603870 (2017).

Biological target: T1, CD20 (Homo sapiens, UniProt P11836)
T1 chain: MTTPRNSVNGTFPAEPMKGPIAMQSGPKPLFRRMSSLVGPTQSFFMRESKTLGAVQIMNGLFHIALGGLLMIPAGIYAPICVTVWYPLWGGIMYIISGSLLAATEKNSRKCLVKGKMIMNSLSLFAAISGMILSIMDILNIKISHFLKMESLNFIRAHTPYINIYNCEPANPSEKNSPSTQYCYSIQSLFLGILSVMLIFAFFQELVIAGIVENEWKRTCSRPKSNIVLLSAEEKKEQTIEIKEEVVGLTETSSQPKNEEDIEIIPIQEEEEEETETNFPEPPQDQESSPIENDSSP
Assay: saturation binding

B1: Rituximab (antibody, V domains shown)
VH: QVQLQQPGAELVKPGASVKMSCKASGYTFTSYNMHWVKQTPGRGLEWIGAIYPGNGDTSYNQKFKGKATLTADKSSSTAYMQLSSLTSEDSAVYYCARSTYYGGDWYFNVWGAGTTVTVSA
VL: QIVLSQSPAILSASPGEKVTMTCRASSSVSYIHWFQQKPGSSPKPWIYATSNLASGVPVRFSGSGSGTSYSLTISRVEAEDAATYYCQQWTSNPPTFGGGTKLEIK
modifications: 90Y-DOTA conjugated
B1 gave a Kd of 2.84 nM.
